These results are taken from patent US20170145086A1 (VISTERRA, published 2017).

Experiment [1] deals with T1, HA-GCN4 hAPRIL (amino acid residues 105-250) (human, UniProt O75888 105-250).
T1 construct: Bought (R&D Systems); also called HA-tagged GCN4 human APRIL; HA-GCN4-huAPRIL; not shown: N-terminal HA tag; GCN4 isoleucine zipper oligomerization domain
T1 sequence: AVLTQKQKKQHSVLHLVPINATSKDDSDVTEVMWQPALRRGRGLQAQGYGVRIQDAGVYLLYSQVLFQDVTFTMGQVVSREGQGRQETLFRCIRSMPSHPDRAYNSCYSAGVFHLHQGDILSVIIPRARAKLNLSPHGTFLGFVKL
Briefly: blocking ELISA; blocked: human APRIL binding to BCMA-Fc. How it is done: (§1) Recombinant TACI-Fc or BCMA-Fc was coated on 96 well plates in 0.1 M carbonate-bicarbonate buffer (pH 9.6), overnight at 4° C. Plates were washed three times with 1×PBST (PBS+0.025% Tween 20) followed by blocking with 1% BSA in 1×PBS, 37° C. for 1 hour. All subsequent wash steps were carried out with 1×PBST. To assess antibody blocking, either 15 ng/mL or 50 ng/mL HA-GCN4-huAPRIL was preincubated with varying antibody concentrations ranging from 0.03-30 μg/mL in binding buffer comprised of 1% BSA and 0.025% Tween-20 in 1×PBS. Preincubation was carried out at 30° C. for 1 hour with mixing. Antibody-APRIL premix with 50 ng/mL APRIL or 15 ng/mL APRIL was then added to TACI-Fc coated or BCMA-Fc coated plates, respectively, and incubated for an additional hour at 30° C. HA-tagged APRIL binding to either receptor was quantified using a goat polyclonal anti-HA tag-HRP antibody (Abcam) added at a 1:10000 dilution followed by colorimetric development using 100 μl/well of freshly prepared TMB substrate (KPL) carried out for up to 30 minutes at room temperature before quenching enzymatic reaction by the addition of 1N sulfuric acid. ELISA signal was quantified by absorbance at 450 nm. ELISA data was analyzed by non-linear regression. IC₅₀ values were calculated based on a 4 parameter fit of antibody titration curves. […] Non-blocking antibodies Aprly-1 or Aprly-5 (Enzo Biosciences) were used as negative controls. Mouse specific, blocking antibody aprily-1-1 (Adipogen) was generally used as a positive control in experiments using mouse APRIL (HA-GCN4-mAPRIL).
Assay is based on receptor blocking ELISA using recombinant human APRIL (R&D Systems) and either human TACI-Fc (FIG. 30A) or BCMA-Fc (FIG. 30B).
For orientation: In an ELISA, binding on a coated surface is turned into a signal by an enzyme label.

For experiment [2], the target named is T1, HA-GCN4 hAPRIL (amino acid residues …). Nature of the experiment: blocking ELISA; blocked: human APRIL binding to TACI-Fc.
Experiment [3] shares this target. Briefly: indirect ELISA on human APRIL.
The target is the same in experiment [4]. Briefly: blocking ELISA; blocked: human APRIL binding to human BCMA-Fc. More on the design: concentration or dose not given beside the values. As for the experimental part: (§2) FIGS. 19A-19B depict the antibody inhibition of APRIL binding to TNFSF receptors TACI (FIG. 19A) and BCMA (FIG. 19B). Assay is based on blocking ELISA using recombinant human APRIL (R&D Systems) and Human TACI-Fc. Inhibition was analyzed by non-linear regression using a four parameter fit.
as §1

Experiment [5] shares this target. Briefly: blocking ELISA; blocked: human APRIL binding to human TACI-Fc. More on the design: concentration or dose not given beside the values. How it is done:
as §2, §1

For experiment [6] the target is unchanged. Briefly: blocking ELISA, 4-parameter fit; blocked: human APRIL binding to human BCMA-Fc. How it is done: as §2, §1
The target is the same in experiment [7]. Nature of the experiment: blocking ELISA, 4-parameter fit; blocked: human APRIL binding to human TACI-Fc. How it is done:
as §2, §1

For experiment [8] the target is unchanged. Briefly: indirect ELISA on human APRIL; column head prints IC50 (pM), legend paragraph 725 calls the values EC50. The text has this:
Purified antibodies were further characterized for APRIL binding, APRIL species cross reactivity (human APRIL vs. mouse APRIL), and receptor blocking activity using TACI-Fc. For binding, an APRIL-based indirect ELISA was used to determine by first approximation the relative affinity of purified anti-APRIL antibodies to either human APRIL or mouse APRIL. ELISA method was as generally described above. […] Blocking and wash steps were completed as described. Binding of anti-APRIL antibodies to APRIL was quantified using an 8 point dilution of test antibody that spanned over a four log scale. Antibody binding to APRIL was detected using a rabbit anti-mouse IgG (H+L)-HRP conjugate (Jackson ImmunoResearch Laboratories). Antibody binding data was analyzed by non-linear regression analysis using a 3 parameter fit to determine max binding and apparent EC₅₀ values. […] Mouse specific antibody Apry-1-1 (Adipogen) was likewise used for quantification of antibody binding to mouse APRIL.

B1: 4540-033 (antibody, V domains shown)
VH: QVQLVQSGAEVKKPGASVKVSCKASGYTFADYYINWVRQAPGQGLEWMGWIFPGSGSTYYAQKLQGRVTMTTDTSTSTAYMELRSLRSDDTAVYYCARGDSGRAMDYWGQGTLVTVSS
VL: DIQMTQSPSSLSASVGDRVTITCQASQDINKYLAWYQHKPGKAPKLLIHYTSTLETGVPSRFSGSGSGTDFTFTISSLQPEDIATYYCLQYDNLLTFGGGTKVEIK
For orientation: IC50 means the midpoint of a concentration-inhibition curve. On to B1, for which, in experiment [1], the IC50 was 3.68 nM and the “Relative Activity (normalised to 2419)” value was determined as 15.6. In experiment [2], the IC50 was determined as 0.35 nM and the “Relative Activity (normalised to 2419)” value was 1.26.

B2: 2419-0406 (antibody, V domains shown)
VH: QVQLVQSGAEVKKPGSSVKVSCKASGYTFTDYTIHWVRQAPGQGLEWMGWIYPLRGSINYAEKFKGRVTLTADKSTSTVYMELSSLRSEDTAVYFCARHGAYYSNAFDYWGQGTLVTVSS
VL: EIVMTQSPATLSVSPGERATLSCRASESVDNDGIRFLHWYQQKPGQAPRLLIYRASTRATGIPARFSGSGSRTEFTLTISSLQSEDFAVYYCQQSNKDPYTFGGGTKVEIK
Turning to B2, in experiment [1], the IC50 came to 0.25 nM and the “Relative Activity (normalised to 2419)” value turned out to be 1.05. For the same molecule, in experiment [2], the IC50 turned out to be 0.33 nM and the “Relative Activity (normalised to 2419)” value came out at 1.2.

B3: 2419-0806 (antibody, V domains shown)
VH: EVQLVQSGAEVKKPGESLKISCKASGYTFTDYTIHWVRQMPGKGLEWMGWIYPLRGSINYSPSFQGQVTISADKSISTVYLQWSSLKASDTAMYFCARHGAYYSNAFDYWGQGTLVTVSS
VL: EIVMTQSPATLSVSPGERATLSCRASESVDNDGIRFLHWYQQKPGQAPRLLIYRASTRATGIPARFSGSGSRTEFTLTISSLQSEDFAVYYCQQSNKDPYTFGGGTKVEIK
Usually EC50 stands for the concentration giving half of the maximal effect. For B3, a half-maximal response in experiment [3] (EC50) required 0.00231 nM. In experiment [1], the IC50 is 0.21 nM and the “Relative Activity (normalised to 2419)” value came out at 0.89. Also, in experiment [2], the IC50 came to 0.32 nM and the “Relative Activity (normalised to 2419)” value turned out to be 1.17.

B4: 2419-1310 (antibody, V domains shown)
VH: QVQLVQSGAEVKKPGASVKVSCKASGYTFTDYTIHWVRQATGQGLEWMGWIYPLRGSINYAQKFQGRVTMTANKSISTVYMELSSLRSEDTAVYFCARHGAYYSNAFDYWGQGTLVTVSS
VL: DIVMTQSPDSLAVSLGERATINCKSSQSVDNDGIRFLHWYQQKPGQPPKLLIYRASTRESGVPDRFSGSGSGTDFTLTISSLQAEDVAVYYCQQSNKDPYTFGGGTKVEIK
With B4, the EC50 in experiment [3] turned out to be 0.00219 nM. Besides, in experiment [1], the IC50 came out at 0.27 nM and the “Relative Activity (normalised to 2419)” value came out at 1.14. Also, in experiment [2], the IC50 is 0.3 nM and the “Relative Activity (normalised to 2419)” value came out at 1.09.

B5: 2419-1305 (antibody, V domains shown)
VH: QVQLVQSGAEVKKPGASVKVSCKASGYTFTDYTIHWVRQATGQGLEWMGWIYPLRGSINYAQKFQGRVTMTANKSISTVYMELSSLRSEDTAVYFCARHGAYYSNAFDYWGQGTLVTVSS
VL: EIVMTQSPATLSVSPGERATLSCRASESVDNDGIRFLHWYQQKPGQAPRLLIYRASNRETGIPARFSGSGSGTEFTLTISSLQSEDFAVYYCQQSNKDPYTFGGGTKVEIK
In experiment [3], B5 yielded an EC50 of 0.00241 nM. For the same molecule, the IC50 in experiment [1] is 0.15 nM; in experiment [2], 0.29 nM. Also, the “Relative Activity (normalised to 2419)” value in experiment [1] was determined as 0.62; in experiment [2], 1.06.

B6: 3934 (antibody, V domains shown)
VH: QVQLQQSGPELVKPGASVKLSCKAAGYIFTDYTINWVKQSPGQGLEWIGWIYPGSGNRKYNDKFKGKATMTADKSSSTAYMQLSSLTSEDSAVYFCARESNYVGYYAMDYWGQGTSVTVSS
VL: DVLMTQTPLSLPVSLGDQASISCRSSQSVVNSNGNTYLEWYLQKPGQSPNLLIYKVSNRFSGVPDRFSGSGSGTDFTLKISRVEAEDLGVYYCFQGSHVPWTFGGGTKLEIK
notes: also called monoclonal antibody 3934
The term % Inhibition denotes how much of the control response was suppressed. Turning to B6, the entries for the “% Inhibition” value in experiment [4] and in experiment [5] were 98% and 96%, respectively. Further, the IC50 in experiment [6] came to 0.21 nM; in experiment [7], 2.43 nM. The molecule further had an EC50 in experiment [8] of 0.0101 nM.
